Reference: patent US20190225662A1

Biological target: GABABR1a on mouse hippocampal neurons (cultures and slices) (mouse), Q9WV18
Experiment: cell-based or functional assay

Chain of GABABR1a on mouse hippocampal neurons (cultures and slices) (mouse), Q9WV18 (Q9WV18 20-960): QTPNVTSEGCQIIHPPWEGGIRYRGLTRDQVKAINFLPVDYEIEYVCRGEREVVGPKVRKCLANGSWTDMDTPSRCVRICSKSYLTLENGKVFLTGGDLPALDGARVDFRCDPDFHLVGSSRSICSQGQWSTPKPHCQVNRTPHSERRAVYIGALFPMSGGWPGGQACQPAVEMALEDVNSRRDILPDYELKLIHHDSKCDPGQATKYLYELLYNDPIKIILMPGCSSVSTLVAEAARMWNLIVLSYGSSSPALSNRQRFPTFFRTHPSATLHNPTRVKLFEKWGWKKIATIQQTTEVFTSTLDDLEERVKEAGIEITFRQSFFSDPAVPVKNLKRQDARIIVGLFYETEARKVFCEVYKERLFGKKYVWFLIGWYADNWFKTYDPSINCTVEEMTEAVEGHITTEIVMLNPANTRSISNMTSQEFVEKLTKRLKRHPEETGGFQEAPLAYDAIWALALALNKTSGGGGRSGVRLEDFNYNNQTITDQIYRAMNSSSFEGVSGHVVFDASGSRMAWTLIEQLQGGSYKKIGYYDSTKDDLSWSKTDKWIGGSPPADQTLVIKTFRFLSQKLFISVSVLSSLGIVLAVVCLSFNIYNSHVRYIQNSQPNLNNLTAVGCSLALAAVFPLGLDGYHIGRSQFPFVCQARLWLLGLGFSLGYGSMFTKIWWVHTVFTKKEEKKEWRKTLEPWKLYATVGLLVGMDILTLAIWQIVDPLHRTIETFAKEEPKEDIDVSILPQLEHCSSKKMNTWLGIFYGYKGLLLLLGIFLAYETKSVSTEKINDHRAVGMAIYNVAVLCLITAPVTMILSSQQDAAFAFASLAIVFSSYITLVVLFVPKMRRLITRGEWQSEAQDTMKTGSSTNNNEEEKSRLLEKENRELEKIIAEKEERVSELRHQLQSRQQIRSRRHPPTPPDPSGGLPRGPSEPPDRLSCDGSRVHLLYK

B1: sAPPα (Fc cleaved), P12023 18-687 (ligand)
chain: LEVPTDGNAGLLAEPQIAMFCGKLNMHMNVQNGKWESDPSGTKTCIGTKEGILQYCQEVYPELQITNVVEANQPVTIQNWCKRGRKQCKTHTHIVIPYRCLVGEFVSDALLVPDKCKFLHQERMDVCETHLHWHTVAKETCSEKSTNLHDYGMLLPCGIDKFRGVEFVCCPLAEESDSVDSADAEEDDSDVWWGGADTDYADGGEDKVVEVAEEEEVADVEEEEADDDEDVEDGDEVEEEAEEPYEEATERTTSTATTTTTTTESVEEVVRVPTTAASTPDAVDKYLETPGDENEHAHFQKAKERLEAKHRERMSQVMREWEEAERQAKNLPKADKKAVIQHFQEKVESLEQEAANERQQLVETHMARVEAMLNDRRRLALENYITALQAVPPRPHHVFNMLKKYVRAEQKDRQHTLKHFEHVRMVDPKKAAQIRSQVMTHLRVIYERMNQSLSLLYNVPAVAEEIQDEVDELLQKEQNYSDDVLANMISEPRISYGNDALMPSLTETKTTVELLPVNGEFSLDDLQPWHPFGVDSVPANTENEVEPVDARPAADRGLTTRPGSGLTNIKTEEISEVKMDAEFGHDSGFEVRHQK
reduction of the frequency of miniature excitatory postsynaptic currents (mEPSCs), 250 nM sAPPα, primary hippocampal neurons: 39% | reduction of the frequency of miniature inhibitory postsynaptic currents (mIPSCs), 250 nM sAPPα, primary hippocampal neurons: 44% | reduction of total presynaptic strength (S=ΔF×D), FM1-43 synaptic vesicle recycling, cultured hippocampal neurons: 57% | reduction on mIPSC amplitude: 14%
